Laboratory results from PMC5548120.

Target: T1, rat TRPV2 (transient receptor potential vanilloid 2), full-length, with a 1D4-tag (rat), Q9WUD2
T1 chain: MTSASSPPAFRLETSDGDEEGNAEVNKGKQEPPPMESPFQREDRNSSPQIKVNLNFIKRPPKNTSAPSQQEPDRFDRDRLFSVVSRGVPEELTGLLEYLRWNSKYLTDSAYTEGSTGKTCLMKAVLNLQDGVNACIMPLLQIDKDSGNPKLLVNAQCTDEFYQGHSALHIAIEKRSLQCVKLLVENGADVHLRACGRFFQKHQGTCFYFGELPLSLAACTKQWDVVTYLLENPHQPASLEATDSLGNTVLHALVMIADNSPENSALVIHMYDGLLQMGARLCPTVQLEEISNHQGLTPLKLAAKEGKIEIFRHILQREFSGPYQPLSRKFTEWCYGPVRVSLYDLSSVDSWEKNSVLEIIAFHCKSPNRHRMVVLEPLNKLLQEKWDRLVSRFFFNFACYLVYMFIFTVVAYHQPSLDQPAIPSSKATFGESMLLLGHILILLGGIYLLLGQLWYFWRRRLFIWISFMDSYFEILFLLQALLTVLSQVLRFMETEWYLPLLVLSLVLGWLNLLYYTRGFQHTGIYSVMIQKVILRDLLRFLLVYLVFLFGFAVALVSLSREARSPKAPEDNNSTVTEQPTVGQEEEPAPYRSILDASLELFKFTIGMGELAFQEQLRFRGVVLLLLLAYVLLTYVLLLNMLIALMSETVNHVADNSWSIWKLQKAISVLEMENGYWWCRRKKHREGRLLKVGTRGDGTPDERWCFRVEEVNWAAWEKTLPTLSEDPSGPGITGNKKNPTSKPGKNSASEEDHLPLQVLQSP
Assay: SEC + native gel or EMSA
Conditions: remark: other sources report otherwise

- stoichiometry N: 4
B1: rat TRPV2 (transient receptor potential vanilloid 2), full-length, with a 1D4-tag, Q9WUD2 1-761 (natural protein)
chain: T1 chain
